Test results as given in patent publication CN109776679A.

Target: T1, 丝氨酸蛋白酶抑制因子SPINK1的第10-19个氨基酸片段 (synthetic SPINK1 peptide, aa 10-19)
T1 sequence (peptide): SALALLSLSG
Assay: antibody titer; method and coated antigen not stated there, taken to be ELISA on the coated immunogen peptide

B1: 单克隆抗体KZN2 (monoclonal antibody against SPINK1 produced by hybridoma CGMCC No.15800) (antibody, V domains shown)
VH: QVQLQQSGGGLVQPGGAMKLSCTASGFTFSDAWMYWVRQSPEKGLEWVAEIRNKAYNHATYYAESVKGRFTISGDDSKSSVYLQMNSLRAEDTGIYYCTTYDYWGQGTTVTVSS
VL: DIVMTQSPLSLPVSLGDQASISCRSSQSLVHGDGNTYLHWYLQKPGQSPNLLIYKISNRFSGVPDRFSGSGSGTDFTLKISRVEAEDLGVYFCSQNTHVPRTFGGGTKLEIK
抗体最低作用浓度: 0.0825 µg/mL
效价 (dilution factor (1:x)): 4000
